The text below walks through data of US20240398942A1 (CHIA TAI TIANQING PHARMACEUTICAL GROUP, published 2024).

Positions count from the first letter of the chain named.

Usually Kd stands for the constant that tells how readily two partners part at equilibrium. Broadly, the koff is the rate constant with which the complex falls apart. The term kon denotes the rate constant with which the complex forms. As usually defined, the EC50 is the concentration giving half of the maximal effect. One may read the IC50 as the concentration at which inhibition is half-maximal.

Sequences and labels used below:
B1: chimeric antibody C1H1 (antibody, human IgG1, kappa, V domains shown)
VH: EVKLVESGGGLVKPGASLKLSCAASGFTFSNYGISWVRQTSDKRLEWVASISSGGDNTYYPDNVKGRFTISRENAKNTLYLQMSSLKSEDTALYYCARAGEKAMDYWGQGTSVTVSS
VL: DIVLTQSPVTLSVTPGDSVSLSCRASQTINNNLHWYQQKSHESPRLLIKYASQSISGIPSRFSGSGSGTDFTLSINSVETEDFGIYFCQQFSSWPLTFGAGTKLELKR
notes: also called Chimeric C1H1
B2: BM1 (dacetuzumab) (antibody, human IgG1, kappa, V domains shown)
VH: EVQLVESGGGLVQPGGSLRLSCAASGYSFTGYYIHWVRQAPGKGLEWVARVIPNAGGTSYNQKFKGRFTLSVDNSKNTAYLQMNSLRAEDTAVYYCAREGIYWWGQGTLVTVSS
VL: DIQMTQSPSSLSASVGDRVTITCRSSQSLVHSNGNTFLHWYQQKPGKAPKLLIYTVSNRFSGVPSRFSGSGSGTDFTLTISSLQPEDFATYFCSQTTHVPWTFGQGTKVEIKR
notes: Benchmark antibody, prepared in-house; also called CD40-BM1; benchmark
B3: BM2 (selicrelumab) (antibody, human IgG2, kappa, V domains shown)
VH: not shown
VL: DIQMTQSPSSVSASVGDRVTITCRASQGIYSWLAWYQQKPGKAPNLLIYTASTLQSGVPSRFSGSGSGTDFTLTISSLQPEDFATYYCQQANIFPLTFGGGTKVEIKR
notes: Benchmark antibody, prepared in-house; also called CD40-BM2; benchmark
B4: humanized antibody huC1H1-V1 (antibody, human IgG2, kappa, V domains shown)
VH: EVQLVESGGGLVKPGGSLRLSCAASGFTFSNYGISWVRQAPGKGLEWVASISSGGDNTYYPDNVKGRFTISRDNAKNSLYLQMNSLRAEDTAVYYCARAGEKAMDYWGQGTLVTVSS
VL: EIVLTQSPATLSLSPGERATLSCRASQTINNNLHWYQQKPGQAPRLLIKYASQSISGIPARFSGSGSGTDFTLTISSLEPEDFAVYFCQQFSSWPLTFGGGTKVEIKR
notes: Human IgG2 / kappa
B5: humanized antibody huC1H1-V2 (antibody, human IgG2, kappa, V domains shown)
VH: B4 VH with A49S
VL: B4 VL
notes: Human IgG2 / kappa
B6: mouse anti-CD40 monoclonal antibody C1H1 (antibody, V domains shown)
VH: B1 VH
VL: DIVLTQSPVTLSVTPGDSVSLSCRASQTINNNLHWYQQKSHESPRLLIKYASQSISGIPSRFSGSGSGTDFTLSINSVETEDFGIYFCQQFSSWPLTFGAGTKLELK
notes: Parent mouse antibody from a hybridoma; the mouse constant regions are not; also called Mouse C1H1

The first experiment addresses T1, recombinant human CD40-his (Acro biosystems, Cat. No. CD0-H5228) (human, UniProt P25942 21-193).
T1 construct: Bought protein; also called human CD40-his protein; not shown: His tag
Briefly: SPR (Biacore T200), antibody captured on anti-human IgG chip, CD40-his as analyte, 1:1 fit. The source says:
(§1) Briefly, a goat anti-human IgG (GE Healthcare, Cat. No. BR100839, human antibody capture kit) was covalently linked to a CM5 chip (GE Healthcare, Cat. No. BR100530, carboxymethylated dextran-coated chip) via the primary amine group using a standard amine coupling kit supplied by Biacore (GE Healthcare, Pittsburgh, PA, USA). Unreacted portions on the biosensor surface were blocked with ethanolamine. Then, the anti-CD40 antibody of the present application and two benchmark antibodies (BM1 (dacetuzumab, Genentech Inc., also referred to CD40-BM1, prepared in-house; the heavy and light chain amino acid sequences are set forth in SEQ ID NOs: 40 and 41, respectively) and BM2 (selicrelumab, Abgenix Inc., also referred to CD40-BM2, prepared in-house; the heavy and light chain amino acid sequences are set forth in SEQ ID NOS: 42 and 43, respectively)) at a concentration of 66.67 nM were directed through the chip at a flow rate of 10 μL/min. Then, serially diluted recombinant human CD40-his (Acro biosystems, Cat. No. CD0-H5228, serially 2-fold diluted from 80 nM in HBS-EP⁺ buffer (supplied by Biacore)) or cynomolgus monkey CD40-his protein (Acro biosystems, Cat. No. CD0-C52H6, serially 2-fold diluted from 80 nM in HBS-EP⁺ buffer (supplied by Biacore)) was directed through the chip at a flow rate of 30 μL/min. The antigen-antibody binding kinetics was tracked for 2 min and the dissociation kinetics was tracked for 10 min. The association and dissociation curves were fitted to a 1:1 Langmuir binding model using BIAcore evaluation software. KD, Kₐ, and Kd values were determined.
A general note: Surface plasmon resonance follows binding to a sensor surface in real time, without labels.
Regarding B1, the Kd was found to be 0.861 nM, the koff was 0.00157 s⁻¹ and the kon was determined as 1.82e+06 M⁻¹ s⁻¹.

With B2, the Kd worked out at 8.87 nM, the koff is 0.00656 s⁻¹ and the kon was 739000 M⁻¹ s⁻¹.

The target of a further experiment is T2, cynomolgus monkey CD40-his protein (Acro biosystems, Cat. No. CD0-C52H6) (cynomolgus monkey, UniProt G7PG38 21-193).
T2 construct: Bought protein; not shown: His tag
The description is as above.
From the text: as §1
In turn, B3 returned a Kd of 8.73 nM, a koff of 0.00151 s⁻¹ and a kon of 173000 M⁻¹ s⁻¹.

Molecule B1 returned a Kd of 0.846 nM, an off-rate constant (koff) of 0.00215 s⁻¹ and an on-rate (kon) of 2.54e+06 M⁻¹ s⁻¹.

With B4, the dissociation constant (Kd) was found to be 1.11 nM, the koff stood at 0.00237 s⁻¹ and the kon was found to be 2.14e+06 M⁻¹ s⁻¹.

For the molecule B5, the dissociation constant Kd amounted to 1.07 nM, the koff came to 0.00274 s⁻¹ and the kon turned out to be 2.56e+06 M⁻¹ s⁻¹.

Consider B2, for which binding was characterised by a dissociation constant (Kd) of 9.68 nM, the off-rate (koff) was determined as 0.0074 s⁻¹ and the kon worked out at 764000 M⁻¹ s⁻¹.

The next experiment deals with T1, recombinant human CD40-his (Acro …). The description is as above. This is another data set of the same source.
From the text: as §1
Take B3: the Kd was 7.84 nM, the koff came out at 0.00162 s⁻¹ and the kon worked out at 206000 M⁻¹ s⁻¹.

With B1, the Kd was determined as 0.884 nM, the koff turned out to be 0.00222 s⁻¹ and the kon stood at 2.51e+06 M⁻¹ s⁻¹.

B4: the Kd was determined as 1.1 nM, the koff stood at 0.00248 s⁻¹ and the kon worked out at 2.25e+06 M⁻¹ s⁻¹.

As for B5, the Kd came out at 1.17 nM, the koff was determined as 0.0027 s⁻¹ and the kon came out at 2.31e+06 M⁻¹ s⁻¹.

With B2, the Kd amounted to 9.42 nM, the off-rate (koff) worked out at 0.00756 s⁻¹ and the kon is 803000 M⁻¹ s⁻¹.

The target in another experiment is T3, human CD40-Fc protein (human, biotinylated (sites not given) in the capture ELISA and the benchmark blocking ELISA; not biotinylated in the ligand blocking ELISA).
T3 construct: also called biotinylated human CD40-Fc
Briefly: capture ELISA: antibody captured on coated goat anti-human IgG F(ab')2, biotinylated human CD40-Fc 1.15 nM, streptavidin-HRP, OD(450-630). The procedure:
The plate was washed once with a washing buffer (PBS+0.05% v/v of Tween-20, PBST) and then blocked with 200 μL/well blocking buffer (PBST containing 5% w/v of skim milk) for 2 h at 37° C. The plate was washed 4 times, and the anti-CD40 antibody of the present application, BM1, BM2, and a negative control hIgG (human immunoglobulin for intravenous injection (pH 4), Hualan Biological Engineering Inc.) serially 5-fold diluted from 66.7 nM in a PBST containing 2.5% w/v of skim milk was added at 100 μL per well. The plate was incubated for 40 min at 37° C. and washed 4 times. A biotinylated human CD40-Fc protein (amino acid residues 21-193 of SEQ ID NO: 30 linked to the N terminus of amino acid residues 99-330 of SEQ ID NO: 28, dissolved in PBST containing 2.5% w/v of skim milk at a concentration of 1.15 nM) was added at 100 μL/well to a 96-well plate coated with the anti-CD40 antibody. The plate was incubated at 37° C. for 40 min and washed 4 times. An HRP-labeled streptavidin (diluted at 1:10000 in PBST, Jackson Immuno Research, Cat. No. 016-030-084) was added at 100 μL/well, and the plate was incubated at 37° C. for another 40 min. After the last wash, 100 μL/well of ELISA substrate TMB (Innoreagents, Cat. No. TMB-S-002) was added and the plate was incubated at room temperature. After 3-10 min, the reaction was stopped by adding 1 M H₂SO₄ at 50 µL/well, and the absorbance of each well was read on a microplate reader using the dual wavelength mode (TMB detection wavelength: 450 nm, reference wavelength: 630 nm). Curves of OD(450-630) values vs. antibody concentration were plotted. Data were analyzed using Graphpad Prism software, and EC₅₀ values were obtained.
A general note: ELISA stands for enzyme-linked immunosorbent assay.
In the case of B3, a half-maximal effect (EC50) was put at 1.34 nM.

The molecule B6 came in with an EC50 of 0.203 nM.

The molecule B1 displayed an EC50 of 0.343 nM.

As to B2, the EC50 was 0.59 nM.

A further experiment deals with T3, human CD40-Fc protein. Briefly: competitive ELISA: BM2 (selicrelumab) coated as competitor, antibody titrated and pre-mixed with biotinylated human CD40-Fc 0.23 nM, streptavidin-HRP, OD(450-630). The method, then:
The ability of the anti-CD40 antibody of the present application to block the binding of the benchmark to human CD40 was determined by competitive ELISA. Briefly, BM2 antibody was immobilized on a 96-well micro plates at 1 μg/mL in PBS, 100 µL/well, and incubated overnight at 4° C. The next day, the plate was washed once with a washing buffer before a blocking buffer (PBST containing 5% w/v of skim milk) was added. The plate was then incubated at 37° C. for 2 h for blocking. During the blocking of the 96-well plate, the anti-CD40 antibody of the present application or the benchmark was serially 5-fold diluted from 66.7 nM with a biotinylated human CD40-Fc protein (amino acid residues 21-193 of SEQ ID NO: 30 linked to the N terminus of amino acid residues 99-330 of SEQ ID NO: 28, dissolved in PBST containing 2.5% w/v of skim milk at a concentration of 0.23 nM) and then incubated at room temperature for 40 min. After the plate was washed 4 times, the antibody/biotinylated human CD40-Fc mixture was added at 100 μL/well to the plate coated with BM2. The plate was incubated at 37° C. for 40 min and again washed 4 times with the washing buffer. An HRP-labeled streptavidin was added at 100 μL/well, and the plate was incubated at 37° C. for 40 min to detect biotinylated human CD40-Fc immobilized on the plate. Again, the plate was washed 4 times with the washing buffer. Finally, TMB was added and the reaction was stopped by adding 1 M H₂SO₄. The absorbance was read on a microplate reader using the dual wavelength mode (TMB detection wavelength: 450 nm, reference wavelength: 630 nm). Curves of OD(450-630) values vs. antibody concentration were plotted. Data were analyzed using Graphpad Prism software, and IC₅₀ values were obtained.
B6 came in with an IC50 of 0.125 nM.

Regarding B1, the IC50 came out at 0.16 nM.

For the molecule B4, the IC50 came out at 0.513 nM.

B5 displayed an IC50 of 0.318 nM.

Molecule B2 gave an IC50 of 0.0461 nM.
